# From patent US20150125454A1 (Daiichi Sankyo, published 2015)
# B1: rat anti-FGFR2 antibody FR2-10 (antibody, IgG2a, V domains shown)
# VH: EVQLVESGGGLVQPGRSLKLSCVASGFRFNDFWMTWIRQAPGKGLEWVASITYTGDNTYYAGSVKGRITISRDNAKSTLYLQMNSLRSEDTATYYCTRDDYGGYSPYYMDAWGQGTSVTVSS
# VL: DIQMTQSPSSLSAFLGDRVTITCRASQDIGNYLRWFQQKPGKSPRLMIYGATNLANGVPSRFSGSRSGSDYSLTINNLESEDMAIYYCLKHNEYPFTFGSGTKLEIKR
# notes: Used as hybridoma culture supernatant in flow cytometry and as antibody purified from ascites elsewhere; also called rat FR2-10 antibody
# Biological target: human FGFR2 IIIc variant protein (isoform 1: NP-000132) (human, UniProt P21802 22-821)
# Sequence (P21802 22-821 limits assumed, change not shown): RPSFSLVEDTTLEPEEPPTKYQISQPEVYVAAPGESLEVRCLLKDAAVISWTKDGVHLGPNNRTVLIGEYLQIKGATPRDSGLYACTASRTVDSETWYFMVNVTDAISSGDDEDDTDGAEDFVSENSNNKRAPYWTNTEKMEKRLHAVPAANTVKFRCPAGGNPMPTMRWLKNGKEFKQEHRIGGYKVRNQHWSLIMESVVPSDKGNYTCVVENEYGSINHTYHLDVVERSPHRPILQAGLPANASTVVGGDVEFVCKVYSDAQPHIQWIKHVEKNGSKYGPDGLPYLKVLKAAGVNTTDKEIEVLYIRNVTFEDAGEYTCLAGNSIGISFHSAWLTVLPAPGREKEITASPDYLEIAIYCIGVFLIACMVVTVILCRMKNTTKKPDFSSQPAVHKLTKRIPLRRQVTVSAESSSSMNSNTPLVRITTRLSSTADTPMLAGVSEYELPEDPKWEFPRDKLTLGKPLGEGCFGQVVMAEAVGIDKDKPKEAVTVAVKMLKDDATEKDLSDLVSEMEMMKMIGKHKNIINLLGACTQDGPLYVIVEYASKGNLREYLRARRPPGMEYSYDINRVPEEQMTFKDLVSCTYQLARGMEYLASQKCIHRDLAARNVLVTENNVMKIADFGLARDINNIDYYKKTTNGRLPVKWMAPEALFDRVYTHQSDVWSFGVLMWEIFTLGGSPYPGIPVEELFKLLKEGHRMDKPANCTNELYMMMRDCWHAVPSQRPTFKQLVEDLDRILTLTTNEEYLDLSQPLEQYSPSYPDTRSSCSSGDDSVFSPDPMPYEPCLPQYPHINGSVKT
# Test: flow cytometry (MFI) on transfected HEK293T cells, hybridoma supernatant; non-binding implied by 'selectively', values only in FIG. 1
# Experimental: Each human FGFR expression vector constructed in Examples 1)-3-1 and 2)-1-1 was transfected to HEK293T cells by the method shown in Example 1)-5-1. The cell suspension was centrifuged to remove the supernatant. Then, these various human FGFR expression vector-transfected HEK293T cells and the pcDNA-DEST40-transfected HEK293T cells were separately suspended by the addition of the hybridoma culture supernatant containing the FR2-10, FR2-13, or FR2-14 antibody and left standing at 4° C. for 1 hour. The cells were washed twice with PBS containing 5% FBS, then suspended by the addition of Anti-Rat IgG FITC conjugate (manufactured by Sigma-Aldrich Corp.) diluted 320-fold with PBS containing 5% FBS, and left standing at 4° C. for 1 hour. The cells were washed 3 times with PBS containing 5% FBS and then resuspended in PBS containing 5% FBS and 2 μg/ml 7-aminoactinomycin D (manufactured by Molecular Probes, Inc.), followed by detection using a flow cytometer (FC500; manufactured by Beckman Coulter Inc.). The data was analyzed using Flowjo (manufactured by Tree Star Inc.). After removal of 7-aminoactinomycin D-positive dead cells by gating, the FITC fluorescence intensity of live cells was plotted to a histogram to calculate average fluorescence intensity (MFI).
binder,measurement,value
B1,binding result,no binding
